Earlier results in article PMC9696485.
pKd: −log10 of the molar value.

Target: integrin α6β4 (Homo sapiens) (UniProt P23229)
Sequence of UniProt P23229 (P23229 24-1130, chain 1 of 2): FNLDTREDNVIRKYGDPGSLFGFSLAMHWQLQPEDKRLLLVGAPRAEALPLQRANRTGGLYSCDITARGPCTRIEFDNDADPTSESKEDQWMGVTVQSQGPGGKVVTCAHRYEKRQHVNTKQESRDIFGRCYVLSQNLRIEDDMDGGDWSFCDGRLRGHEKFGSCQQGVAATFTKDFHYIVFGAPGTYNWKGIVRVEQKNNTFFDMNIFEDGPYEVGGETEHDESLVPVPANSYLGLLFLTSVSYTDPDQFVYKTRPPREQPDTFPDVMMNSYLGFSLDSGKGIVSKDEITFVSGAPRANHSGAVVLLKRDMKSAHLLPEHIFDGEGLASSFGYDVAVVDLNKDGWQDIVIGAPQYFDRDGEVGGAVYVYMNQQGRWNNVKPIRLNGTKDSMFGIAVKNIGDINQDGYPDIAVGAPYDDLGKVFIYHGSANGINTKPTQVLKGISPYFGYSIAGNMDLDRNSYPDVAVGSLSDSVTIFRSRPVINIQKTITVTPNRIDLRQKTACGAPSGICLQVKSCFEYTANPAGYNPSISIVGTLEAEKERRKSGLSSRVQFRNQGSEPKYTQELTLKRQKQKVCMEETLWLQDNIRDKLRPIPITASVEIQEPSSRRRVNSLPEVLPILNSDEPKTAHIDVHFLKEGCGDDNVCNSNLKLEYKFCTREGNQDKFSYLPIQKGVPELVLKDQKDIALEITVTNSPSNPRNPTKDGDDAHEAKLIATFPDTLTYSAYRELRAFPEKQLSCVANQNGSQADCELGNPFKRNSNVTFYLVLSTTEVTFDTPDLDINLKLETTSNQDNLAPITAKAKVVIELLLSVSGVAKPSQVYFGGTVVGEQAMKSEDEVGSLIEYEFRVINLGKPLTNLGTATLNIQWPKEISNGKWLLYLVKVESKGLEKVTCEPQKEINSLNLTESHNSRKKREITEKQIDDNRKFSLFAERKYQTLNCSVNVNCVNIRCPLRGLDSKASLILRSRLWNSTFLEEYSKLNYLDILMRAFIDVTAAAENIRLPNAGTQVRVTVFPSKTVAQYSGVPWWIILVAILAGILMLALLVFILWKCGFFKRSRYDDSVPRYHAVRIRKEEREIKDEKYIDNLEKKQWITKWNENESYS
Sequence of UniProt P23229 (P16144 28-1822, chain 2 of 2, further chain): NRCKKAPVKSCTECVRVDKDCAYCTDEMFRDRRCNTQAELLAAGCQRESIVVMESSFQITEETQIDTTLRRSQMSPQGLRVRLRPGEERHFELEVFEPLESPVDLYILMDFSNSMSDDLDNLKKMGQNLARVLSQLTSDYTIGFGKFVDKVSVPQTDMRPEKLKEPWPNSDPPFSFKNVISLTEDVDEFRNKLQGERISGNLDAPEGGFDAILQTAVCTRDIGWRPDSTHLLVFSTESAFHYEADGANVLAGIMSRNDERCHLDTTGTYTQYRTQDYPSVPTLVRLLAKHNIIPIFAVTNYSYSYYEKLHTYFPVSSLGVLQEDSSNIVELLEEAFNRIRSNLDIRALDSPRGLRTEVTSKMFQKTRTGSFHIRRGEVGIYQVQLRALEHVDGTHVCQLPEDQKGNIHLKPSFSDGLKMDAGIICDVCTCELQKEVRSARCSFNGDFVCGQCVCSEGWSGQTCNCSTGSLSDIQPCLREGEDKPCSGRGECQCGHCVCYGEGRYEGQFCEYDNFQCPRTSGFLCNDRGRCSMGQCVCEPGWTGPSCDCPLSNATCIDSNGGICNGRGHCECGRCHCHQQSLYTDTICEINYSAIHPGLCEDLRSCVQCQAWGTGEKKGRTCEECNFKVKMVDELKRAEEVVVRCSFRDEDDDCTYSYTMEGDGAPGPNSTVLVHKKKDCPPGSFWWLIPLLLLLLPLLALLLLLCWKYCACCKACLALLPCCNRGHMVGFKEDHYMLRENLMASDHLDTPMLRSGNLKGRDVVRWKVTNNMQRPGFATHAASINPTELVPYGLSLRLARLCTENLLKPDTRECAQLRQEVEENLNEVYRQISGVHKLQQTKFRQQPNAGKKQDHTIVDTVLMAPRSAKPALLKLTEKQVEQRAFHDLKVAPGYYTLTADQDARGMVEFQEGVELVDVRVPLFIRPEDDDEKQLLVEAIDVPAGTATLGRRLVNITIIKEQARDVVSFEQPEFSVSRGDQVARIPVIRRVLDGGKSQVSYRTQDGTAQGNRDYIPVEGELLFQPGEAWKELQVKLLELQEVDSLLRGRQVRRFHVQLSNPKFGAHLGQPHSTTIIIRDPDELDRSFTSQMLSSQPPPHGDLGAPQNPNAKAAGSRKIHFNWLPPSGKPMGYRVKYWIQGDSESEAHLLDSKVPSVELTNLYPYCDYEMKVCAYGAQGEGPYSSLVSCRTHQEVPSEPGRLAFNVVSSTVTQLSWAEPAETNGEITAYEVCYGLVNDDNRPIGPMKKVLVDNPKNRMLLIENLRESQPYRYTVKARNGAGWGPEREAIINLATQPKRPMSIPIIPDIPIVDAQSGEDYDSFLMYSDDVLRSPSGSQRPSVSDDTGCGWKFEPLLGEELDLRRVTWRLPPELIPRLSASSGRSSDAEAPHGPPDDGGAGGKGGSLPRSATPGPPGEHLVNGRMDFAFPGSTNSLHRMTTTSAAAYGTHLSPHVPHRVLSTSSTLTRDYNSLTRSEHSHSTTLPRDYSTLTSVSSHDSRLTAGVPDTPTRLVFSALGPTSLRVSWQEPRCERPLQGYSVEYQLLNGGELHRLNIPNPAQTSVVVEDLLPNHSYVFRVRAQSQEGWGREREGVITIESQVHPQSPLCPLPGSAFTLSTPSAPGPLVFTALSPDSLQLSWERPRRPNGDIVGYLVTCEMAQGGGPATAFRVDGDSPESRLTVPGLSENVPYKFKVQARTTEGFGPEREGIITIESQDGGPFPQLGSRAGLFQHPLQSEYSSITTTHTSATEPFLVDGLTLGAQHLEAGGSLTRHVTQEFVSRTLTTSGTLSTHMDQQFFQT

## AG86 laminin peptide
  pKd: 5.60
